Experimental findings from PMC2819845 (Biochemistry, 2009) are described below.

The series concerns the molecule itself. The series is described as follows: crystal structure.

B1: phosphorylated Sts-2PGM (phospho-His366) (domain or fragment, mouse, UniProt Q3V3E1 354-624, looked up)
chain: ATISRRGILVVRHGERVDQVFGKSWLQQCTTADGKYYRPDLNFPRSLPRRSNGIKDFENDPPLSSCGIFQARLAGEALLDSGVRVTAVFASPALRCVQTAKHILEELKLEKKLKIRVEPGIFEWMKWEASKATLTFLTLEELKEANFNVDLDYRPALPRCSLMPAESYDQYVERCAVSMGQIINTCPQDMGITLIVSHSSALDSCTRPLLGLPPRECGDFAQLVRKIPSLGMCFCEENREDGKWDLVNPPVKTLTHGANSVFNWRNWISSN
modifications: phosphohistidine at 366 (on NE2; occupancy between 0.50 and 0.70, in three of the four monomers)
With B1, the binding result is “binds”.
